Assay results from patent publication US20260250418A1 (BIOCYTOGEN PHARMACEUTICALS BEIJING, published 2026).
Residue numbers refer to the chain shown, from its start.

T1: monkey (Macaca fascicularis) HER3 on CHO-fasHER3 cells (monkey (Macaca fascicularis), UniProt P21860 20-643 (human entry))
T1 construct: CHO-S cells transfected with fasHER3
T1 chain: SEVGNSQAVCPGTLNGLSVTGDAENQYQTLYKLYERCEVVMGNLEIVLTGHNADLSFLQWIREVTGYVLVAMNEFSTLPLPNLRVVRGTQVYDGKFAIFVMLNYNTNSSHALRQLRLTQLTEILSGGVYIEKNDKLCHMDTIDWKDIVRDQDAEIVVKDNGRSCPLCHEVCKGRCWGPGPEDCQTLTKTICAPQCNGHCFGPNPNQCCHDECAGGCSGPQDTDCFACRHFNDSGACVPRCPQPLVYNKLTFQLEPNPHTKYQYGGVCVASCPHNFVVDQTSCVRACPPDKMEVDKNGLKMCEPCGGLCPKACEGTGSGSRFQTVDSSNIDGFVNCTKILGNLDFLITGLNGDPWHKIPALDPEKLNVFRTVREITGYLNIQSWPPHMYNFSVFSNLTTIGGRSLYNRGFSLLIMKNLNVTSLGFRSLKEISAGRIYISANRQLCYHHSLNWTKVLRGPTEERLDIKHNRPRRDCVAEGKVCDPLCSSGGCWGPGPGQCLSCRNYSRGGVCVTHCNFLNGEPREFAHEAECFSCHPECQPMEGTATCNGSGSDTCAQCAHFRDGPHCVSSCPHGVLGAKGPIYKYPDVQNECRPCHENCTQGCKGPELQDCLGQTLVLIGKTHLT

B1: anti-HER3/MET bispecific antibody 1C5-8E2 (bispecific antibody, V domains shown)
VH 1: QVQLVESGGGVVQPGKSLRLSCAASGFTFSRSGMHWVRQAPGKGLEWVALISFDGSNKYYADSVKGRFTISRDNSKNTLNLQMNSLRAEDTAVYYCAKGGFGVVIYDAFDIWGHGTMVTVSS
VH 2: QVQLVQSGPALVKPTQTLTLTCTFSGFSLYTSGVAVAWIRQPPGKALEWLALIYWDDDKWYTPSLKTRLSITKDTSKNQVVLTMTNMDPVDTATYYCAHRGSFNWNYGYFDYWGQGTLVTVSS
VL: not shown
B2: anti-HER3/MET bispecific antibody 1C5-8D9 (bispecific antibody, V domains shown)
VH 1: B1 VH 1
VH 2: QVQLQESGPGLVKPSETLSLTCTVSGGSISGHYWSWIRQSPGKGLEWIGYITYSGSTNYNPSLKSRVTISVDTSKNQFSLKLSSVTAADTAVYYCGTIAVAGRVYYYGVDVWGRGTTVTVSS
VL: not shown
B3: anti-HER3/MET bispecific antibody 3G6-2F11 (bispecific antibody, V domains shown)
VH 1: QVQLVQSGPVLVKPTETLTLTCTVSGFSLSNIRMGVSWIRQPPGKALEWLAHIFSNDDKSYSTSLKSRLTISKDTSKSQVVLTMTNVDPVDTATYYCTRMRYSGGPFDYWGQGTLVTVSS
VH 2: EVQLVESGPGLVKPSETLSLTCTVSGGSISSNYWSWIRQPPGKGLEWIGYIYHSGSTNYNPSLKSRVTISVDTSKNQFSLKLSSVTAADTAVYFCARGPVSIFGVVKYIDLWGRGTLVTVSS
VL: not shown
B4: anti-HER3/MET bispecific antibody 3E1-8H10 (bispecific antibody, V domains shown)
VH 1: B3 VH 1 with Q1E, V12A, T63P, S67N, N86T, V87M, V90M, R101K
VH 2: QVQLQQWGAGLLKPSETLSLTCAVYGGSFSGYYWTWIRQPPGKGLEWIGESNHGGSTNFNPSLKSRVTISVDTSKNHFSLKLSPVTAADTAVYYCTRGGTIFGLKDAFDIWGQGTMVTVSS
VL: not shown
B5: anti-HER3/MET bispecific antibody 3G6-8E2 (bispecific antibody, V domains shown)
VH 1: B3 VH 1
VH 2: B1 VH 2
VL: not shown
B6: anti-HER3/MET bispecific antibody 3E1-8D9 (bispecific antibody, V domains shown)
VH 1: B3 VH 1 with Q1E, V12A, T63P, S67N, N86T, V87M, V90M, R101K
VH 2: B2 VH 2
VL: not shown
B7: anti-HER3/MET bispecific antibody 3E1-8E2 (bispecific antibody, V domains shown)
VH 1: B3 VH 1 with Q1E, V12A, T63P, S67N, N86T, V87M, V90M, R101K
VH 2: B1 VH 2
VL: not shown
B8: anti-HER3/MET bispecific antibody 3E1-2F11 (bispecific antibody, V domains shown)
VH 1: B3 VH 1 with Q1E, V12A, T63P, S67N, N86T, V87M, V90M, R101K
VH 2: B3 VH 2
VL: not shown
B9: anti-HER3/MET bispecific antibody 1B2-8E2 (bispecific antibody, V domains shown)
VH 1: B3 VH 1 with G26T, I32A, T63P, S78T, V87M, T98S, T114S
VH 2: B1 VH 2
VL: not shown
B10: anti-HER3/MET bispecific antibody 1B2-8D9 (bispecific antibody, V domains shown)
VH 1: B3 VH 1 with G26T, I32A, T63P, S78T, V87M, T98S, T114S
VH 2: B2 VH 2
VL: not shown
B11: anti-HER3/MET bispecific antibody 1B2-2F11 (bispecific antibody, V domains shown)
VH 1: B3 VH 1 with G26T, I32A, T63P, S78T, V87M, T98S, T114S
VH 2: B3 VH 2
VL: not shown

These binders were tested against T2, human MET on NIH3T3-hMET cells (human, UniProt P08581 25-1390) (assay: flow cytometry, transfected NIH3T3 cells).
T2 construct: NIH3T3 cells transfected with a plasmid expressing hMET
Description: (§1) Specifically, CHO-hHER3 cells, CHO-fasHER3 cells, NIH3T3-hMET cells or NIH3T3-fasMET cells were transferred to a 96-well plate at a density of 5×10⁴ cells/well respectively. The antibodies were added to the 96-well plate, and incubated at 4° C. for 30 min.

T2 sequence (P08581 25-1390 limits assumed): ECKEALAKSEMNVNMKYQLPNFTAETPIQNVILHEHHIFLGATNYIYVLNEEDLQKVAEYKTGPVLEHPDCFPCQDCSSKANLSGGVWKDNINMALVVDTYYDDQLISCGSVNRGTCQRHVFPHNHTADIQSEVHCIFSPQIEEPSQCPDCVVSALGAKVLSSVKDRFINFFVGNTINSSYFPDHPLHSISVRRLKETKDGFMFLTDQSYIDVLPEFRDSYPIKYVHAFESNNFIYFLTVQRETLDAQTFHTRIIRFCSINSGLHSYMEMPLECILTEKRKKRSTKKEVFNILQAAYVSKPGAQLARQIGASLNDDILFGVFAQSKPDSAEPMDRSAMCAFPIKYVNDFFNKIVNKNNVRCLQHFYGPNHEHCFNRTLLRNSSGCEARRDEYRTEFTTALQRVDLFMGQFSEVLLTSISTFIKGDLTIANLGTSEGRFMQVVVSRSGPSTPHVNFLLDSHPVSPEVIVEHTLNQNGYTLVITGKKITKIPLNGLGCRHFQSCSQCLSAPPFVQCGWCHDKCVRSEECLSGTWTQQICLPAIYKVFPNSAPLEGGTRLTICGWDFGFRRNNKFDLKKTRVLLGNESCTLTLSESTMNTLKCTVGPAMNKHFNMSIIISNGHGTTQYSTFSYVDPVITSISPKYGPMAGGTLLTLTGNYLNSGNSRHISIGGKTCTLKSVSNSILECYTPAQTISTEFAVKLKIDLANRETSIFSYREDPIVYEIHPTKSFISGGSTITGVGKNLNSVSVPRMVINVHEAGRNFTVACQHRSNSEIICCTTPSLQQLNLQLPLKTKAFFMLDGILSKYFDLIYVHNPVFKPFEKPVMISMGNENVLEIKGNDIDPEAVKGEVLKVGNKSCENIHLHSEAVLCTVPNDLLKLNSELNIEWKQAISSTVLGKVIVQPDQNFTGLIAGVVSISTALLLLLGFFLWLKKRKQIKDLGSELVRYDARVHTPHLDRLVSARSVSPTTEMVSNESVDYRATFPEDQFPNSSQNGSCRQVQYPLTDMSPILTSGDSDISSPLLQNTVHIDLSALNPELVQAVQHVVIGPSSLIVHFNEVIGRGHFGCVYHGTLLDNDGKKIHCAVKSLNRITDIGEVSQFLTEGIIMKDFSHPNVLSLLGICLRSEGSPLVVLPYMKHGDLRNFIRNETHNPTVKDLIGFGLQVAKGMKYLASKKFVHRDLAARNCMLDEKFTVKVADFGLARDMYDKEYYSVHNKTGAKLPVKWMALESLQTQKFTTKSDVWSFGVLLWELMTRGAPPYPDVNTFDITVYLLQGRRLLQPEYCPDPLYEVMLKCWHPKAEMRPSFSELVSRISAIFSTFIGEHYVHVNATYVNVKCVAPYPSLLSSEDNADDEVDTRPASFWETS

Positive Cells	Binder
99.6%	B1
99.8%	B2
99.8%	B3
99.7%	B4
99.6%	B5
99.9%	B6
99.5%	B7
99.8%	B8
99.6%	B9
99.8%	B10
99.8%	B11

The binders below were run against T3, monkey MET on NIH3T3-fasMET cells (monkey, UniProt A0M8R7 25-1381) (assay: flow cytometry, transfected NIH3T3 cells).
T3 construct: NIH3T3 cells transfected with a plasmid expressing fasMET
Description: as §1

T3 sequence (A0M8R7 25-1381 S170N/I621T limits assumed): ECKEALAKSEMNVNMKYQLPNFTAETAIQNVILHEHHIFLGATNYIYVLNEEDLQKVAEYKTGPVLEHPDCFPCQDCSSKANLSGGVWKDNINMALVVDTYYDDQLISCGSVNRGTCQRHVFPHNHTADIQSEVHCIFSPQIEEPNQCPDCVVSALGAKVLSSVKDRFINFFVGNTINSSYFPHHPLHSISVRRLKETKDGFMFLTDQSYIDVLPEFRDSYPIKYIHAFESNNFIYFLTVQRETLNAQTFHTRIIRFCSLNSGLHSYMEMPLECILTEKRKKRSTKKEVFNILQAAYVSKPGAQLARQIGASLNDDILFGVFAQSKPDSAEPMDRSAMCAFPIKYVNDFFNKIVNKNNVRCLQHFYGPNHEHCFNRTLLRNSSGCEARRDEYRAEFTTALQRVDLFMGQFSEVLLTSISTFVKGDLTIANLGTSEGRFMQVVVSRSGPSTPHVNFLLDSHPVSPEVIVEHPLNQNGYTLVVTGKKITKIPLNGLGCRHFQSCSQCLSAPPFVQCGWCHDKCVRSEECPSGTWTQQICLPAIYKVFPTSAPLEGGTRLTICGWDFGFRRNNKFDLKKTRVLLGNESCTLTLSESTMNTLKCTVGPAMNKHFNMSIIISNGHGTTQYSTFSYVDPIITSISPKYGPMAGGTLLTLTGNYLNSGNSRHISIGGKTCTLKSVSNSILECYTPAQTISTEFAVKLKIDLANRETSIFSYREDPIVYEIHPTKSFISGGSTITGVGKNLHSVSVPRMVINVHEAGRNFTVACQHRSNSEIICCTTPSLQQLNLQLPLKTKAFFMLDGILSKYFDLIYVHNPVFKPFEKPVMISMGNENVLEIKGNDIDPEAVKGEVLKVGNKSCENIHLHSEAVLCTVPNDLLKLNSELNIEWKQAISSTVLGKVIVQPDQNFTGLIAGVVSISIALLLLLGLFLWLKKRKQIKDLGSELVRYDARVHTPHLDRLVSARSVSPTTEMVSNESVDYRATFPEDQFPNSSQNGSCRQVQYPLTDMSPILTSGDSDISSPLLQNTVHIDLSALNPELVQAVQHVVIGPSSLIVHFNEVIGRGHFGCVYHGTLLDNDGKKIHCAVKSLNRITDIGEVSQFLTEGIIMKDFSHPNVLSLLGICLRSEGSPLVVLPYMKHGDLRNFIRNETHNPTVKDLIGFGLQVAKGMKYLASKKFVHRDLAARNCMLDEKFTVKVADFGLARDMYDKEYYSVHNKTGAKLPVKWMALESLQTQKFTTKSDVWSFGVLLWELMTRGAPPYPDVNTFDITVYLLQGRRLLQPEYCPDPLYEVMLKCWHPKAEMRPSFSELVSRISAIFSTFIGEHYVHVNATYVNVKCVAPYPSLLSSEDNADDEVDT

Positive Cells	Binder
55.1%	B1
65.1%	B2
72.9%	B3
54.6%	B4
51.6%	B5
70.2%	B6
54.8%	B7
87.3%	B8
54.3%	B9
64.9%	B10
66.4%	B11

Target: T1, monkey (Macaca fascicularis) HER3 on …
Assay: flow cytometry, transfected CHO cells
Description: as §1

Positive Cells	Binder
55.1%	B1
60.4%	B2
56%	B3
66%	B4
58.4%	B5
58.6%	B6
63.9%	B7
50.3%	B8
61.4%	B9
55.5%	B10
56.3%	B11

Each binder was assayed against T4, human HER3 on CHO-hHER3 cells (human, UniProt P21860 20-643) (assay: flow cytometry, transfected CHO cells).
T4 construct: CHO-S cells transfected with hHER3
Description: as §1

Positive Cells	Binder
56.9%	B1
64.8%	B2
47.3%	B3
72.1%	B4
55.2%	B5
59%	B6
58.4%	B7
56.4%	B8
56.3%	B9
54%	B10
51.4%	B11

These binders were tested against T5, His-tagged human MET (hMET, Sino Biological, Inc., Cat #: 10692-H08H) (human, UniProt P08581 25-932) (assay: SPR, Ab captured on Protein A, antigen 400 nM).
T5 construct: Bought protein; not shown: His tag
Description: (§2) Purified antibodies were captured on the Protein A chip (Series S Sensor Chip Protein A) for the detection. 2 μg/mL antibodies were loaded at 10 μL/min to bind to hHER3, fasHER3, hMET or fasMET (400 and 0 nM). The flow rate was 30 μL/min, the binding and dissociation time were set to 180 s and 400 s, respectively. The chip was regenerated after the last injection of each titration with a glycine solution ([…]) at 30 μL/min for 30 seconds.

T5 sequence (P08581 25-932 limits assumed): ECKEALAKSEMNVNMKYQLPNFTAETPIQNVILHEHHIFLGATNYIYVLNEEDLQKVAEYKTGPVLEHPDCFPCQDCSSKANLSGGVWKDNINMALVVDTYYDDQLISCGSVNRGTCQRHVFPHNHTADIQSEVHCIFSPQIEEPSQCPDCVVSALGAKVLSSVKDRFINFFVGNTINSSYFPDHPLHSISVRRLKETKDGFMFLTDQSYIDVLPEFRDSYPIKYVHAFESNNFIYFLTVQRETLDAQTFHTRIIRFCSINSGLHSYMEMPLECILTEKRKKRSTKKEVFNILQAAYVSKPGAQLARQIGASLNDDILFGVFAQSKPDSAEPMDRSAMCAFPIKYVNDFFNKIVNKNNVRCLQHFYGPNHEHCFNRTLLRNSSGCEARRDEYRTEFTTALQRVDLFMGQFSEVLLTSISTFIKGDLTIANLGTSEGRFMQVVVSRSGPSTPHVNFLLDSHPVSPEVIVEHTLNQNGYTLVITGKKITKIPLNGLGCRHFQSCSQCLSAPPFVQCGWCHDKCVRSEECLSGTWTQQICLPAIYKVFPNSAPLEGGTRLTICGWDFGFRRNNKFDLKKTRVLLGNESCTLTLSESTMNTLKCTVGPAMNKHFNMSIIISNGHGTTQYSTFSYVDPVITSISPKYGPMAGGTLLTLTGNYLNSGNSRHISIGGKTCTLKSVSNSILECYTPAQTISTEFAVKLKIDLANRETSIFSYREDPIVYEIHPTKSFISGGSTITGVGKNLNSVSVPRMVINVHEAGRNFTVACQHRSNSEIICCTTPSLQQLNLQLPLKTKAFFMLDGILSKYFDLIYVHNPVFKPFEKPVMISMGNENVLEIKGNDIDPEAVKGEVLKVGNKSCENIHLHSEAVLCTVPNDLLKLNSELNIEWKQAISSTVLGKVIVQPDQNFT

Kd	koff	kon	Binder
18 nM	0.00122 s⁻¹	68000 M⁻¹ s⁻¹	B1
22.5 nM	0.000531 s⁻¹	23600 M⁻¹ s⁻¹	B2
50.7 nM	0.00256 s⁻¹	50500 M⁻¹ s⁻¹	B3
12.7 nM	0.00516 s⁻¹	408000 M⁻¹ s⁻¹	B4
14.8 nM	0.00113 s⁻¹	–	B5
21.8 nM	0.00051 s⁻¹	23400 M⁻¹ s⁻¹	B6
16.9 nM	0.0012 s⁻¹	71100 M⁻¹ s⁻¹	B7
43.1 nM	0.00285 s⁻¹	66100 M⁻¹ s⁻¹	B8
14 nM	0.000998 s⁻¹	71400 M⁻¹ s⁻¹	B9
35.7 nM	0.000973 s⁻¹	27200 M⁻¹ s⁻¹	B10
40.4 nM	0.00255 s⁻¹	63200 M⁻¹ s⁻¹	B11

Each binder was assayed against T6, His-tagged human HER3 protein (hHER3, ACRO Biosystems Inc., Cat #: ER3-H5223) (human, UniProt P21860 20-643) (assay: SPR, Ab captured on Protein A, antigen 400 nM).
T6 construct: Bought protein; also called hHER3-His; not shown: His tag
Description: as §2

Kd	koff	kon	Binder
32.7 nM	0.000777 s⁻¹	23700 M⁻¹ s⁻¹	B1
31.1 nM	0.000605 s⁻¹	19400 M⁻¹ s⁻¹	B2
47.4 nM	0.0106 s⁻¹	224000 M⁻¹ s⁻¹	B3
14.5 nM	0.00332 s⁻¹	229000 M⁻¹ s⁻¹	B4
38.9 nM	0.0101 s⁻¹	–	B5
15 nM	0.00341 s⁻¹	227000 M⁻¹ s⁻¹	B6
13.2 nM	0.0035 s⁻¹	266000 M⁻¹ s⁻¹	B7
14.8 nM	0.00342 s⁻¹	231000 M⁻¹ s⁻¹	B8
13.8 nM	0.00252 s⁻¹	183000 M⁻¹ s⁻¹	B9
16.7 nM	0.00262 s⁻¹	157000 M⁻¹ s⁻¹	B10
16.1 nM	0.00253 s⁻¹	157000 M⁻¹ s⁻¹	B11

These binders were tested against T7, His-tagged monkey HER3 protein (fasHER3, Sino Biological, Inc., Cat #: 90043-K08H) (monkey) (assay: SPR, Ab captured on Protein A, antigen 400 nM).
T7 construct: Bought protein
Description: as §2

Kd	koff	kon	Binder
92.5 nM	0.000844 s⁻¹	9120 M⁻¹ s⁻¹	B1
97 nM	0.000671 s⁻¹	6920 M⁻¹ s⁻¹	B2
90.2 nM	0.0103 s⁻¹	114000 M⁻¹ s⁻¹	B3
32.2 nM	0.00318 s⁻¹	98700 M⁻¹ s⁻¹	B4
67.2 nM	–	–	B5
33.1 nM	0.00322 s⁻¹	97300 M⁻¹ s⁻¹	B6
29 nM	0.00329 s⁻¹	113000 M⁻¹ s⁻¹	B7
33.7 nM	0.00325 s⁻¹	96400 M⁻¹ s⁻¹	B8
31.5 nM	0.0025 s⁻¹	79300 M⁻¹ s⁻¹	B9
38.9 nM	0.00261 s⁻¹	67100 M⁻¹ s⁻¹	B10
38.9 nM	0.00255 s⁻¹	65600 M⁻¹ s⁻¹	B11
